B1: SSAP_233: SEQ ID NO: 402; Actinoplanes italicus (protein, listed as Actinoplanes italicus)
chain: PETIANAVAQRDQSPTALVADYRNDFAAVLPSHLPPATFVRLAQGVLRRDQNLMRTAMNNPGSLMTAMLDCARLGHEPGTPAYYFVPIKGAIEGWEGYRGVIERIYRAGAVQSVRAEVVRENDFYEYEEGMPHPIHRYERFASPEQRGPLLGVWAYAVMLDGGMSRPVEMGREEVLAHRDMNPSNNRSDSPWKKWERSMWLKCAVHELEKWVPSSTEYRREIARMSAPQPAAAAAPVTYVPPQVGQRDAIEGEVAEDWPEPAEVPGGAQ
B2: SSAP_11: SEQ ID NO: 180; Bet Lactococcus phage phiLC3 (protein, listed as Lactococcus lactis)
chain: ANEIDIYDAKNLNTATVKKFLKGGGQASDEELAMLLAISRNQNMNPFMKEVYFIKYGSAAAQIVVSRDFYRKRAFQNPNFAGIEVGVIVLNKDGVLEHNEGTFKTKDQELVGAWARVHLKNTEIPVYVAVSYDEYVQMKNGQPNSMWTNKPCTMLGKVAESQALRMAFPAEFSGTYGEEEYPEPEKEPREVNGVKEPDRAQIESFDKENYAARKIEELKEKAQPQKEFVEEIGEAIDEITAEDF
B3: SSAP_69: SEQ ID NO: 238 (protein)
chain: ETIDIKQELASQAQTDSKKEVKLTKAMSIAEMIKAMMPEIKRALPSMITPERFTRIALSALNNTPELQACTPMSFISALLNAAQLGLEINSPLGHAYLIPYKNKGVLECQFQIGYLGLIALAYRNELMQTIQAQCVYENDEFLYEYGLNPKLVHRPATSDRGEPVFFYGLFKMINSGFGFCVMSKQEMDEFARTYSKGLASSFSPWKTSYNEMAKKTVIKQALKYAPIKTDFQKALSTDESIKYAISEDMTEAVNEIVSQNTEVA
B4: SSAP_187: SEQ ID NO: 356; Staphylococcus warneri (protein, listed as Staphylococcus warneri)
chain: ATQNDFKNQITDKKENKPQQSTNPRQVASDLLERMKPEIAKALPAHMSQDRMTRIALSAVNSNPKLSEVILNNPTSFLGALMQSAQLGLEPNTNLGHAYLIPYGNIVQLQLGYLGLLELAYRSGKYQKIMAMPVYKDDFFEYQYGTDEKLNHIPAQQQTGDAVGYYAFYKLTNGGTHFVYWSRQKMNMHQQQYSKGGNVWRNNFDAMALKTVIKDVLKYAPKSIEMGEAVTSDNNNFDFKDGGDIIDVTDYETEEN
B5: SSAP_66: SEQ ID NO: 235 (protein)
chain: TNQLAHKDFFNTPAVKQKFQEVLNGNERQFTASLLSIVNNNKLLARASNTSIMTAAMKAAVLNLPIEPSLGFAYIVPYGQDAQFQLGYKGLIQLAIRSGQFKAINSGKVYKAQFKSYDPLFETLDIDFTQPEDEVYGYFATFELVNGFKKLTFWTKEQAESHGKRFSKTYAKGPWSTDFDAMAQKTVLKSILSKYAPLSTEMQEGLISDNQTEEVETDPIDVTPKNEDTQTLLSDLMSDEAESETEKV
B6: SSAP_77: SEQ ID NO: 246 (protein)
chain: TNNQLVEAKGDFLTNPQLLNSGIIRKYLDPQGKASDEELAYFIAQAKAQNLNPFTKEIYFIKYGTQPAQIVTAKSAFEKKADSHPQFDGKEAGVIYLLDGEIKYSKGAFIPKGAEILGGWAKVYRKDRTYPTETEVSFEEYDNSKIRARVKELTQQGKDVTYPVMNSYGKPIGENNWDTMPCVMIRKVALVSAYREAFPAELGASYEADEIQLDNTPKDITPQENREDVIARKMAQIEQFNKEQAHTDPEPTQTEEPIQGELLDGELEY
B7: SSAP_91: SEQ ID NO: 260; Proteus mirabilis (protein, listed as Proteus mirabilis)
chain: SNPPLAQADLQKTQGTEVKTKTKDQQLIHFINQPSMKTQLAAALPRHMTPDRMIRIVTTEIRKTPALANCDMQSFIGAVVQCSQLGLEPGNALGHAYLLPFGNGKAKSGQSNVQLIIGYRGMIDLARRSNQIISISARTVRQGDSFHFEYGLNENLTHVPGENEDSPITHVYAVARLKDGGVQFEVMTHNQIEKVRASSKAGQNGPWVSHWEEMAKKTVIRRLFKYLPVSIEMQKAVILDEKAEANVDQENASVFEGEFEEVGSNGN
B8: SSAP_178: SEQ ID NO: 347; Streptomyces sp. MZ04 (protein, listed as Streptomyces sp.)
chain: STNLAARVEARRQNPTTKQPARRGKAAQQPTLVQFVQSMRGEIARALPSHVASPERIARIALTELRRVDHLAECTQESFGGALMTCAALGLEPGGVGGEAYLLPFWNKKVRAYEVTLVIGYQGMVRLFWQHPAAAGLAAHTVHEGDEFDFEYGLEPFLRHKPARTGRGKPTDYYAVAKMANGGSAFVVMNVEDIEAIRHRSKARDAGPWSTDYGLRRHGAQDLHSAVVQVAAEVC
B9: SSAP_102: SEQ ID NO: 271; Halomonas coralii (protein, listed as Halomonas coralii)
chain: TDQATAEPQEDLGKQLQQHSQRKPMPTTIQGMLKDDRFTGQIARALPKHITPDRISRIALTEVNKTPALGKCDPMSLFGSIIQSAQLGLELGGALGHAYLVPYKDQAQFIIGYRGMIDLARRSGQMVSLQAHTVHENDDFEFEYGLDEKLRHVPARGQRGPMIAVYAVAKLTGGGHQIEVMWKEDVDAIRQQSKAGNSGPWRDHYEEMAKKTAIRRLFKYLPVSVEMQKAVSLDEQAEAGVQDNNVFDGEFSYQEPE
B10: SSAP_279: SEQ ID NO: 448; Dorea sp. 42_8 (protein, listed as Dorea sp.)
chain: AVNNSLAKRDQSMKLSVYLQNDAVKKQINQVVGGKNGTRFISSIVSAVQSTPALQECTSPSIVNAALLGEALNLSPSPQLGQFYMVPFDNRKKGCKEAQFQLGYKGYIQLAERSGYYKKLNVLAIKEGELIRYDPLDEEIEVELIDDDVIREETPAMGYYAMFEYENGFCIQQKWRSEDFGTFRAGQNSGKGSLEVFFFLVQRF
B11: SSAP_22: SEQ ID NO: 191 (protein)
chain: SNELMTKAVTYEVNNEEVKLSGQIVKQYLTSGQAVTDQEVTMFIQLCRYQHLNPFLNEAYLVKFNGKPAQIITSKEAFMKRAESNPNYAGLKAGCIVERNGELIYTEGAFTLKTDNILGAWADVIRKDRREPTHVEISMDEFSKSQATWKSMPATMIRKTAIVNALREAFPQDLGALYTEDDKNPNEATQTTYKQEPEVNTTKTADVLAKKFSGAPQIKSVENVQESEEESNNASNHGEATEPVNNVEEPTATAEVEQGQLL
B12: SSAP_71: SEQ ID NO: 240 (protein)
chain: SNNELLAKPVEFEVNGEAVKLTGKTVKNFLVSGNGEVSDQEVVMFINLCKYQKLNPFLNEAYLVKFKSKSGPDKPAQVIVSKEAFMKRAEKHPNYEGFEAGIIVERDGQLVDIEGAIKLTNDKLVGGWARVYRSDRQKPITTRISLSEFSKGQSTWNSMPLTMIRKSAIVNAQREAFPETLGALYTEDDAKLDTTSSHDQEQVIEQEIKTKANQEVIDVEYTEESEQKSPQQEQTETTQAGPGF
B13: SSAP_114: SEQ ID NO: 283; Methylomonas rhizoryzae (protein, listed as Methylomonas rhizoryzae)
chain: SELLSALNAPETQKPQTLPAMLKQHQPRFKAIAPRDVDVTRFSAALMADVRSNQKLAECNPMTVLGAFIRSTQLGLEPGSQLGQAYFVPFKGECQLVIGYRGMIELAYRSGKVASISARTVYENDVFEWELGTDERITHKPATGDRGALVAVYAMAKLTTGGIHFEVLDLAEIEKAKRASKSSSFGPWKDHFEEMAKKTAIRRLFKYLPVGTDLTRAVALDEKAESGSQQNDIEAETVLDGEFYPAGGGNDG
B14: SSAP_316: SEQ ID NO: 485; Companilactobacillus kedongensis (protein, listed as Companilactobacillus kedongensis)
chain: MKDLARIPVKELVRSDTIKSKFNDVLGKRAPQFISSIVNIVNSNQDLKNVDQTSVISSALVAASLDLPINQSFGYMYLVPYSGKAQPQMGYKGYIQLAQRSGQYKRLNAISVSKEKVPDKMVIFIPDYRMEEAETQIDMYQDHIEDVKAGRVEPTRCGKCDYCKSTAKLGKIVSMDDLID

Columns and labels:
Assay type in all cases: cell-based
[1] = test system: gene editing with Cas9 and dCas9; experiment: Screen of 322 new SSAP proteins, activity across all experiments (Cas9 and dCas9, Table 5); design: scale not given here
Outline: (§1)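 First, 322 new single-strand annealing proteins are identified from sequences. Next they are synthesized. Finally each is assayed for editing in combination with Cas9 and, separately, dCas9.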

gene editing with dCas9 = experiment: Screen of 322 new SSAP proteins, gene editing activity with dCas9 (Table 5); design: dCas9 with SSAP activity: scale not given here
Outline: as §1

gene editing with Cas9 = experiment: Screen of 322 new SSAP proteins, gene editing activity with Cas9 (Table 5); design: Cas9 with SSAP activity: scale not given here
Outline: as §1

Row | Molecule | Activity across all experiments [1] | dCas9 with SSAP activity (gene editing with dCas9) | dCas9 with SSAP activity (normalized) (gene editing with dCas9) | Cas9 with SSAP activity (gene editing with Cas9) | Cas9 with SSAP activity (normalized) (gene editing with Cas9)
1 | B1 | −1.424 | −0.220 | −0.063 | −2.628 | −0.424
2 | B2 | −1.223 | −0.655 | −0.866 | −1.791 | −0.870
3 | B3 | −3.014 | −0.742 | −0.240 | −5.286 | −0.810
4 | B4 | −0.120 | −0.498 | −0.164 | 0.257 | 0.239
5 | B5 | 0.082 | −0.205 | −0.040 | 0.370 | 0.407
6 | B6 | −10.167 | −10.167 | – | −10.167 | –
7 | B7 | 0.114 | −0.407 | −0.170 | 0.635 | 0.826
8 | B8 | −0.932 | −0.807 | −0.626 | −1.057 | −0.929
9 | B9 | −0.451 | −0.784 | −0.325 | −0.118 | −0.065
10 | B10 | −6.593 | −10.362 | −2.349 | −2.825 | −3.398
11 | B11 | 0.498 | −0.792 | −0.867 | 1.789 | 4.337
12 | B12 | −1.249 | −0.701 | −0.555 | −1.797 | −2.283
13 | B13 | −9.340 | −10.925 | – | −7.755 | −1.412
14 | B14 | −0.150 | −0.764 | −0.279 | 0.465 | 0.410

From patent US20250034594A1, “RNA-GUIDED GENOME RECOMBINEERING AT KILOBASE SCALE” (THE BOARD OF TRUSTEES OF THE LELAND STANFORD JUNIOR …, priority 2021, published 2025)
